The source of these data is the DeepSol protein solubility set.

The data set can be described thus: soluble on expression in E. coli; label from the status in PepcDB or PDB records.
In the case of “MRVELDFRSVKMQVSQYLYQNVQSIWGDCISHPFVQGIGRGTLERDKFRFYIIQDYLFLLEYAKVFALGVVKACDEAVMREFSNAIQDILNNEMSIHNHYIRGLQITQKELQNARPTLANKSYTSYMLAEGFKGSIKEVAAAVLSCGWSYLVIAQNLSQIPNALEHAFYGHWIKGYSSKEFQACVNWNINLLDSLTLTSSKQEIEKLKDIFITTSEYEYLFWDMAYQSLEHHHHHH”, the “soluble on expression in E. coli” value is recorded as “not soluble”.
In the case of “MLKVAIAEDDFRVAQIQEEFLSKIKDVTVIGKALNAKETIELLQKEEIDLLLLDNYLPDGIGTDLLPQIHADFPNVDVIMVTAANENYMLEKAIRNGVSNYLIKPVTLEKFVRTIEDYKRKKQLLHSNNEVNQALIDNFFGTSQTQDIKNLPTGVDPLTLQKVKGIIKGFEEGITIEEMGEQMGASRTTARRYLEYLVATNECTVEYKYGIIGRPERKYRIGRGL”, the “soluble on expression in E. coli” value is on record as “not soluble”.
Regarding “MAHHHHHHMPGFADSFNGVAVGSSTMLTRGTHSSQDAVHHTDTATAAEWRALYGASADMMNSTAHTYRACGAGVSYMTPIFHLTANDVTILSMEHNNHCRLLGIATSKNQIFVTWTQVMPVIENMGMLRAPDDDLFGGEQATPVDERLLEWDPATMSILIDELPYTCTELSWAPWQQGIYLAGLCPGHGIRLYRYSHGNWALDDCIRSTESVSCSISTNFTVACACRRGRVELWVRGSTASGTAVAPGPSPSLSAGDSTATNGGDGVSHTSWVLCRVLTLPFSEDDNGGSRTHDGDRSGGAGSPSAVAARHRRRDILGVAWVESGALLAAGDQGGSVYVVAATQDSTRLGEVVYHQLPSALCGPCKQVAWSPSSGRSFLCLAMVFTTCVRLVLFRRPSFMNAAGLPHAARSVGGSGGGRMGWAHSSVAPIAASSLEVLAMTQVPCEEVAKLSWNNTGTRFVTAHLDSSVNIWAVDFRYRHPVKGDGANATSGREEANTLHSVDSARMDRQVETSVFAAAGEERLGIVVSVQCTSAVHPYHAVSK”, the “soluble on expression in E. coli” value is given as “not soluble”.
The entry for “SKNGLKKRKLTNPVQLDDFDGYIKDMAKDSDYKFSLQFEELKLIGLDIPHFAADLPMNRCKNRYTNILPYDFSRVRLVSMNEEEGSDYINANYIPGYNSPQEYIATQGPLPETRNDFWKMVLQQKSQIIVMLTQCNEKRRVKCDHYWPFTEDPIAYGDITVEMLSEEEHTDWVYRNFRISYADEVQDVMHFNYTAWPDHGVPTANAAESILQFVQMVRQKSVKSKGPMIIHCSAGVGRTGTFIALDWLLQHIRDHEFVDILGLVSDMRSYRMSMVQTEEQYIFIHQCVQLMWQKKKQQFCISDVIYENVSKS” is “soluble”; for “STGNAGEWCLMESDPGVFTELIKGFGCRGAQVEEIWSLEPENFEKLKPVHGLIFLFKWQPGEEPAGSVVQDSRLDTIFFAKQVINNACATQAIVSVLLNCTHQDVHLGETLSEFKEFSQSFDAAMKGLALSNSDVIRQVHNSFARQQMFEFDTKTSAKEEDAFHFVSYVPVNGRLYELDGLREGPIDLGACNQDDWISAVRPVIEKRIQKYSEGEIRFNLMAIVSDRKMIYEQKIAELQRQLAEEPMDTDQGNSMLSAIQSEVAKNQMLIEEEVQKLKRYKIENIRRKHNYLPFIMELLKTLAEHQQLIPLVEKAKEKQNAKKAQETK” it is “soluble”; for “GPDSEMCKDYRVLPRIGYLCPKDLKPVCGDDGQTYNNPCMLCHENLIRQTNTHIRSTGKCEESSTPGTTAASMPPSDE” it is “soluble”.
The result for “MGSSHHHHHHSSGLGPGGSHMASMSDSEVNQEAKPEVKPEVKPETHINLKVSDGSSEIFFKIKKTTPLRRLMEAFAKRQGKEMDSLRFLYDGIRIQADQTPEDLDMEDNDIIEAHREQIGGSLGRACKYENPARWSEQEQAIKGVYSSWVTDNILAMARPSSELLEKYHIIDQFLSHGIKTIINLQRPGEHASCGNPLEQESGFTYLPEAFMEAGIYFYNFGWKDYGVASLTTILDMVKVMTFALQEGKVAIHCHAGLGRTGVLIACYLVFATRMTADQAIIFVRAKRPNSIQTRGQLLCVREFTQFLTPLRNIFSEGHHHHHH” reads “soluble”; that for “MSLEALSSYQQRNNQQLDQWLNRIPFQTLPLIEAMRYGLLLGGKRARPYLVYITGQMLGCELSDLDTPASAVECIHAYSLIHDDLPAMDDDELRRGKPTCHIQFDEATAILTGDALQTLAFTILAEGDLSAAGETQRVAMLQALAEASGAQGMCLGQALDLAAENRLISLEELETIHRNKTGALMRCAIRLGALAAGEKGRAMLPHLDRYAEAVGLAFQVQDDILDIISDTETLGKPQGSDQELNKSTYPALLGLEGAQQKAHTLLQEALLALEAIPYNTEHLEEFARYVVERKNEGHHHHHH”, “soluble”.
Regarding “MIILIRYGPIDVTYCRMKRGFMYMVAIIDWYSRYIVGFELSNTLDKTFVIEAIQKAIKRYGKPEIMNSDQGSQFTSDDYINLLKNNGIKISMDGKGRALDNQRIERFFRSYKWEKLYLEECETVQQLRQITKEYVEHYNHRRPHQSLDYKTPAEYYFGGYDQLLAVV”, the “soluble on expression in E. coli” value was “not soluble”.
The entry for “MQVLSEATPMTNGEVYALLRRRRDERNAARHPPFGLQPVLADSHQRAAVATGAAAATAVAPSAPASASAISRAASVMSHNSVGQHSGSKAAPAGAIESAASAAAASTASILASPSSVHLVVLLTEVTMLNYIANHSSLLLESARPTPAGVRVRTCTPRDVYGPTSVYNRVVGTEGRSDAAVGASATAAGSLLDAELVSSCYAKLASHRPGTRGHVRGVEELLEHFEEVGRAQERLYAAGVRRAVQQLWRRRLWVPAEGLYPPPSPPFATTAPSLSNGSALVKAEPVAEEDVDGTAEAVQRLSQDKAARQSGAGETNHDAEGAQPTNASHLVTPLLLEPTPLWGPAARNGGGKGSVDGGAATASMAHSPLSYHVQLQLQQASRSLLSEAEVLQLVVGRPQRALDVYRLLDDVDDRLQYREEAVNAFVEAVTGVFAE” is “not soluble”; for “MAHHHHHHMEVVVKSIGTAFTVAVIPVLKDNYSYVIHDKATNTLAAVDVSVDIDPVIDYVRRLGGVDRTTDLRTILSTHKHHDHSGGNISLQKKLNAMGAFRIIGGANEPIPGVTEKVREGDHFSIGELKVDVLDAPCHTSGHVLYKVYHPQKAENGIALFTGDTMFVGGIGAFFEGDAVLMCSALRKVYNLNGACESSACDATDVQKRDNHTYIFPGHEYTVNFLRFSRDALPASHPDVSFVEAQLRRYTESVAGNVPTVPSTLAEEKRQNLFLRTCDEAFVRVMNKGETAVKLMDFLYNTCP” it is “soluble”.
Turning to “MKKILSILLALLLSISSLGVTTSHAEEKIHIEAAAALLFDADTGKILHEQNPDELLAIASMSKLIVVYAVLEAIKEGKITWDTKVNISDYAYEVSRNNEFSNVPFEKGRQYTVRELYHSIVIFSANGSSIALAELLAGSEKNFLNLANEHAKKLGLKKYKFVNATGLNNTDLKGKHPEGTDPNAENSMSARDMGILSKAMITKYPEMLEDTKQRFRNFPDNHPKPIRMENWNWMLPGAAFAYEGTDGLKTGSSDTAGYGFTITAKRGDVRLISVIIKTKSMDERFTESRELIEYGFNNFEKQKLKVDKNNTLSVAQGKEDQVTVAPEKEITVIAKKGSKNPYKIGTEVDKSLAEDGHLVAPIKKDAKVGSITLESTDKYGFLDGSNSMKVTAKTTEEVEKANWFVLTMRSIGDFFSNLWSKVF”, the “soluble on expression in E. coli” value is listed as “not soluble”.
As for “MGSSHHHHHHSSGRENLYFQGMKLATLKDSTRDGKLVVVSKDLTRCSEVGHIARTLQAALDDWAHAGPRLERVAEGIETGAQPTMRFHEHDAASPLPRAFQWADGSAYVNHVELVRKARNAEMPASFWTDPLIYQGGSDSFLGPRDPILMADDAWGIDMEGEAAVIVDDVPMGATLDEAKAAIRLVMLVNDVSLRGLIPGELAKGFGFYQSKPSSAFSPVAVTPEELGEAWDGGKLHLPLHVDLNGEPFGRANAGIDMTFDFPQLIVHAARTRPLSAGTIIGSGTVSNKLEGGPGRPVSEGGAGYSCIAELRMIETIEGGAPKTQFLKFGDVVRIEMKDRTGHSIFGAIEQKVGKYERG”, the “soluble on expression in E. coli” value is recorded as “soluble”.
The entry for “MGSDKIHHHHHHYMDTIPTENVSFTTVSTSLDNLYLALNGIHRKMVSQDLGNQGLGGEPGFIIGREALADDLTWDTQTWHQGFLNWSYPTNATSSYNSGEWETYYKFILNANNILKALNDNFSDESKLTDSEKALANHIKGECLAIRAWSHFNLVQYYAKPYRNGQDNSQPGVPYRTSPEIEPMARNTVEEVYTKIHGDLDEALNLLADYEPNDKNHYSLASVYGLKARALLTQQKYADAATAAVNSINEAEKDGCKIMSQSELMNGFANITSATKEAMYAAMTQNDQTVYFYSFYAYMSWNFNSSSIRTGIKCISQSTYDLMSPTDLRRQWWDPTGKAEVPATSYNQRVYQNRKFTARSTADAVGDFAFMRISEMYLTAAEAFARSNQDAKAKEYLQALLKERDPEYKDLGNTGAKLADEIMTHRRIELWGEGFRWFDLKRLGLPLDRTGSNFDATFCGFLHKDPNADGWIFEIPKKETDFNDLIEKNY” is “not soluble”; for “SALDTNYCFRNLEENCCVRPLYIDFRQDLGWKWVHEPKGYYANFCSGPCPYLRSADTTHSTVLGLYNTLNPEASASPCCVPQDLEPLTILYYVGRTPKVEQLSNMVVKSCKCS” it is “soluble”.
The result for “MRVLIVKTSSMGDVLHTLPALTDAQQAIPGIKFDWVVEEGFAQIPSWHAAVERVIPVAIRRWRKAWFSAPIKAERKAFREALQAKNYDAVIDAQGLVKSAALVTRLAHGVKHGMDWQTAREPLASLFYNRKHHIAKQQHAVERTRELFAKSLGYSKPQTQGDYAIAQHFLTNLPTDAGEYAVFLHATTRDDKHWPEEHWRELIGLLADSGIRIKLPWGAPHEEERAKRLAEGFAYVEVLPKMSLEGVARVLAGAKFVVSVDTGLSHLTAALDRPNITVYGPTDPGLIGGYGKNQMVCRAPGNELSQLTANAVKQFIEENAEKAAMI” reads “soluble”; that for “MSLNVDLHCHSTASDGALSPSVLVARAHEHGVQALALTDHDTLEGLPEARQACVDLGMRWVSGVELSCTWGGATIHVLGYDFPLDAPPLLAAIQALHHGRWLRAEEIDRRLAAKGMPGTLEGARAVQHELGDSGNAPARPHFAEYLVRAGHVKDRGEAFRKWLGAGKLGDVKQHWPTLDETVATLRQSNAWVSLAHPMHYDLTRSKRRRLIADYIQAGGQALEVVNGMMPAEQVGTMSILAREFGLLASAGSDFHGPGTWGEIGAYRPLPEDLPPLWRRFSHEEGHHHHHH”, “soluble”; that for “MAHHHHHHMKPSSISGEAPPLAVVGGNCSVFGFDRFGAERYWTVTGDQVTAMALMPWTSVSDSGSAPLSLLVASDDFEVRVYDGEEAIATVHEVDRVQKLVPLWQPSRNLDTETAAADSAGRYAYLLENGTVGMYERGERVWRVRGKSVPVSAAFCDVDGDGVAELVIGWSNGRVEVRTDRGGGLEKGGSVLFRDTYSSAVAAVLSEDYRQDGVPLPVICTVDGTVRGLTLLETRKDEAAEVRQLQVLEALVQEKQQLAAQLTSLEEQLARRAAGAQDTTMPESGVEVRCCCSANLATKHVEVHVEVTGPAAKRGDIVVHSCLLQCEIWATAAEQDTIAFANAEPSTTLVCSFAHADDLPLNVSASVAVGPAFGDSYRIHEVTVRVPRFVMYQLPYTIPPEQQRQRQGKTVTYQQPDGCVLLQWRELLRLDVIERWLRHSFCVPEDVALLDANAPTDPVLHLELIHVRDGSSFGIEVRNAAASGAAFNTITLWSDHLAPCGAVIDAFVEDLKGGWADGRADPVAVRCEMPLELERLRAIFARVDEFNEVRMKLTTDMADAATVVKTLLGRAEDARLLGDMASMKKSYAVLYDVDQELLCENAKRINNYEELKLALKEVNTCIQQAGMVRIGPARAQLIASCRNALKENQVNSLLEIIRTGSE”, “not soluble”.
The result for “MTHRPAPDDMAELIYTSGTTGNPKGVILTHRNLVANILQVNRHIPVVTPDFSFLSLLPLSHMFEQMGGFFTPLYRGAAIVYIRTLKPSAIMEALGEEDIYAIIAVPRLLQLLKGSVERELEAKGLGSIFRWLLKVGERMSRGGRSVLFRPIQRKFGRNFALFVSGGAPLDPEVFRFWNGLGFRVVEGYGLTECSPVLTANTMERQVMGSVGLEHHHHHH” reads “soluble”.
